Data taken from publication PMC5030135 (Nature chemical biology, 2016).

Biological target: GDI.Cdc42 FLARE biosensor, wild type (Cdc42 with an N-terminal FRET binding antenna) (UniProt P60953 1-191)
Assay: FRET or BRET

Sequence of GDI.Cdc42 FLARE biosensor, wild type (Cdc42 with an N-terminal FRET binding antenna) (P60953 whole entry): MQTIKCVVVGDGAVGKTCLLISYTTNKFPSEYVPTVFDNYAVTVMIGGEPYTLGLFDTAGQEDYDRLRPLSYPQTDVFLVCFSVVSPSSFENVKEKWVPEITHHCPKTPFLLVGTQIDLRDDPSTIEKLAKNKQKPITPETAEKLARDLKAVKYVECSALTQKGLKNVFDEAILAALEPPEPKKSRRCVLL

B1: RhoGDI1 (RhoGDIα), wild type, unlabeled, co-expressed in excess (natural protein)
chain: MAEQEPTAEQLAQIAAENEEDEHSVNYKPPAQKSIQEIQELDKDDESLRKYKEALLGRVAVSADPNVPNVVVTGLTLVCSSAPGPLELDLTGDLESFKKQSFVLKEGVEYRIKISFRVNREIVSGMKYIQHTYRKGVKIDKTDYMVGSYGPRAEEYEFLTPVEEAPKGMLARGSYSIKSRFTDDDKTDHLSWEWNLTIKKDWKD
- increase in FRET/CFP emission ratio: 218%
